Source: the nanobody polyreactivity screen of Harvey et al. (2022)

Experiment: yeast display, Sf9 membrane polyspecificity reagent, FACS + sequencing; frameworks hold sequencing errors
Outline: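 A synthetic nanobody library was expressed on Saccharomyces cerevisiae BJ5465 by galactose induction for 36–48 hours. The library was stained for 1 hour at 4 °C with 10% biotinylated, detergent-solubilized Sf9 membrane reagent and enriched with streptavidin microbeads before FACS. Low and high (top ~1%) gates were set on anti-HA fluorescence for expression and streptavidin fluorescence for reagent binding, and each polyreactivity label reflects the gate of origin.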

| Sequence | polyreactivity (PSR sort gate) |
| --- | --- |
| QVQLVESGGGLVQAGGSLRLSCAASGRIFTRNAMGWYRQAPGKERELVAAISGTGGSTYYADSVKGRFTISRDNAKNTVYLQMNSLKPEDTAVYYCAASRARTRSAYNYWGQGTQVTVSS | high polyreactivity |
| QVQLQESGGGLVRAGGSLRLSCAASGYISTSIAMGWYRQAPGKERELVASFGGGAITNYADSVKGFTISRDNGKNSVYLQMNSLKPEDTAVYYCAVYHGDRGYYSYWGQGTQVTVSS | low polyreactivity |
| QVQLVESGGGLVQAGGSLRLICAASGSYAMGWYRQAPGKERELVASIDGPGGSTYYADSVKGRFTISRDNAKNTVYLQMNSLKPEDTAVYYCEDWAPGLYDYWGQGTQVTVSS | low polyreactivity |
| QVQLVESGGGLVQAGGSLRLSCAASGRTFRGYSMGWYRQAPGKERELVAAISTNGGSTRYADSVKGRFTISRDNSKNTVYLQMNSLKPEDTAVYYCARRDYWGQGTQVTVSS | high polyreactivity |
| QVQLVESGGGLVQAGGSLRLSCAASGFTFDDYTMGWYRQAPGKEREFVAAISSSGGSTYYADSVKGRFTISRDNAKNTVYLQMNSLKPEDTAVYYCAADARYYDYYEYDYWGQGTQVTVSS | high polyreactivity |
| QVQLEESGGGLVQAGGSLRLSCAASGNTFYKYTMGWYRQAPGKERELLAAITWSGGSTYYADSVKGRFTISRDNAKNTVYLQMNSLKPEDTAVYYCNADDYQYKTWYHLDYWGQGTQVTVSS | low polyreactivity |
| QVQLVESGGGLVQAGGSLRLSCAASGFTFGNNAMGWYRQAPGKERELVAGISRTGGRTYYSDSVKGRFTISRDNAKKTVYLKMNSLKPEDTAVYYCNAVSTLYTGYDYWGQGTQVTVSS | high polyreactivity |
| QVQLVESGGGLVQAGGSLRLSCAASGSIFSGNAMGWYRQAPGKKGVGCRYYSCWFYDYADSVKGRFTISRDNAKNTVYLQMNSLKPEDTAVYYCAKSNYVRSEFNYWGQGTQVTVSS | low polyreactivity |
| QVQLVESGGGLDQAGGSLRLSCAASGRIFNVYAMGWYRQAPGKERELVASITSAGSTYYADSVKGRFTISRDNAKNTVYIKMNSLKPEDTAVYYCAADCYSVYYSTYDSWGQGTQVTVSS | low polyreactivity |
| QVQLVESGGGLVQAGGSLRLSCAASGLIFEYYAMGWYRQAPGKERELGAAISGSGGSTYYADSVKGRFTISRDNAKNTVSLQMNSRKPEDTAVDYCNVVGYRWSEFDYWGQGTQVTVSS | low polyreactivity |
| QVQLVESGGGLFQAGGSLRLRWAASGNTFRYYVMGWYRQAPGKERELVADINWSGGRTYYADSVKWGFTISRDNAKNTVYFQMNSLKPEDTAVFYCNAARKLYRYSYDYWGQGTQVTLSS | high polyreactivity |
| QVQLVESGGGLVQAGGSLRLSCAASGMTLGSYAMGWDRQAPGKERELVAAISRRSGRTYYADSVKGRFTISRDNAKNTVYLKMNSLKPEDTAVFYCNRGYTAQVYTEFDDWGQGTQVTVSS | low polyreactivity |
| QVQLVESRRGLVQAGGSLRLSCAGSGRIVSDYAMGWYRQAPGKERELVATITSGDSTNYADSVKGRFTISRDNAKNTVYLQMNSQKPEDTAVYYCNADRFADYDYWGQGTQVTVSS | low polyreactivity |
| QVQLVESGGGLVQAGGSLRLSCAASGSTFGWYAMGWYREAPGKERELVAAISWLGTSTYYADSVKGRFTISRDNAKNTVYLQLNSLKPEDTAVYFCAADAYDVYYAYYYWGQGTQVTVSS | high polyreactivity |
| QVQLVESGGGLVQAGGSLRLSCAASGRTSPRYAMGWYRQAPGKEREWVASISGSGGRTYYADSVKGRFTISRDNAKNTVYLQMNSLKPEDTAVYYCAASTQGNYYPYKRYDYCGQGTQVTVSS | high polyreactivity |
| QVQLVESGGGLVQAGGSLRLSCAASGRTFTYYTMGWYRQAPGKERELVAAITWSGGRTYYADSVKGRFTISRDNAKNTVYLQMNSLKPEDTAVYYCAKPPQGTYDYWGQGTQVTVSS | low polyreactivity |
| QVQLVESGGGLVQAGGSLRLSCAASGRTFAWYAMGRYRQAHGKERELVAVIRRGSGDTYYADSVKARFTISRDNAKNTVYLQMNSLKTEDTAVYYCAAEGRFSFYGGGRTKYSRYDYWGQGTQVTVSS | high polyreactivity |
| QVQLVESGGGLVQAGGSLRLICAASGITFARNTRGWYRQAPGKERELVAAIDSGGNTYADSVKGRFTISRDNAKNTVYLQMNSLKPEDTAVYYCAVDGGEFSSYGYWGQGTQVTVSS | low polyreactivity |
| QVQLVESGGGLVQAGGSLRLSCAASGSTFLTNAIGWYRQATGKEREIVADITWSGGSTYYADSVKGRFTISRDNAKNTVYLQMNSLKPEDTAVYYCAVDAYSSVYLWGFVRFDYWGQGTQVTVSS | low polyreactivity |
| QVQLVESGGGLVQAGGSLRLSCAASGFIFSYYAMGRYRQAPGKEREMVAAITWSGSSTYYADSVKGRFTISRDNAKNTVYLQMYSLIPEDNAVYSCAASSGGFRHYFYTYNYWGQGTQVTVSS | high polyreactivity |
| QVQLVESGGGLVQAGGSLRLSCAASGRTFRYNAMVWFRQAPGKERELVAAISSGDRTNYADSVKGRFTISRDNAKNTVYLQMNSLKPEDTAVYYCAAPTDSYYEFDYWGQGTQVTVSS | low polyreactivity |
| QVQLVESGGGLVQAGGSLRLSCAASGSIFAYYAMGWYRQAPGKERDLVAAISYSGDGTYYADSVKGRFTISRDNAKNTVYLQMNSLKREDTAVYYCATQIYPLDFYQGDWNDYWGQGTQVTVSS | low polyreactivity |

| Sequence | polyreactivity (PSR sort gate) |
| --- | --- |
| QDQLVESGGGLVQAGGSLRLSCAASGIIFPQYTMGWYRQAPGKERELVAVITSGGSTYYADSVKGRFTISRDNAKNTVYLQMNSLKTEDTAVYYCAADAFYKFDYWGQGTQVTVSS | high polyreactivity |
| QVQLVESGGGLVQAGGSLRLSCAASGFTFAGYAMGWYRQAPGKERELVAGIRSSGARTYYADSAKGRFTISRDNAKNTVYFKMNSLKPEDTADYYFAKTDGFYRGYGYWGQGTKVTVSS | low polyreactivity |
| QVQLVESGGGLVQAGGSLRLSCAASGSIFWGYAMGWYRQAPGKERELVASSTNYADSVKGRFTISRDNAKNTVYLQMNSLKPEDTAVYYCAREQGVNRNHDYWGQGTQVTVSS | low polyreactivity |
| QVQLVESGGGLVQAGGSLRLSCAASGSTFKYYAMGWYRQAPGKEREFVAAITANGGRTYYADSVKGRFTISRDNAKNTVYLQMNSLKPEDTAVYYCAARTWYYYVYGYESWGQGTQVTVSS | high polyreactivity |
| QVQLVESGGGLVQAGGSLRLSCAASGYIFQPYAMGWYRQAPGKERELVAAISWRGGSTYYADSVKGRFTISRDNAKNTVYLQMNSLKPEDTAVYYCAVDAWDTTHVYEQGAERDSWGQGTQVTVSS | low polyreactivity |
| QVQLVESGGGLVQAGGSLRLSCAASGYTFWRYAMGWYRQAPGKERELVAAISASGGSTYYADSVKGRFTISRDNAKNTVYLQMNSLKPEDTAVYYCNAVSAYSYYVNYDYWGQGTQVTVSS | high polyreactivity |
| QVQLVESGGGLVQAGGSLRLSCAASGSTFAVYAMGWYRQAPGKERELVAAITRGDRTYYADSVKGRFTISRDNAKNTVYLQMNSLKPEDTAVYYCAAGYYRLWVRYDYWGQGTQVTVSS | low polyreactivity |
| QVQLVESGGGLVQAGGSLRLSCAASGGTFYIYVMGWYIQAPGKERELVAAITSGDSTNYADSVKGRFTISRDNAKNTVYLQMNSLKPEDTAVYYCATGYWELRYDYWGQGTQVTVSS | low polyreactivity |
| QVQLVESGGGLVQAGGSRRLSCAASGSTFAYYAMGWYRQAPGKERELVAAISWRGGSTYYADSVKGRFTISRDNAKNTVYLQMNSLKPEDTAVYYCATLSAWKASSYDYWGQGTQVTVSS | high polyreactivity |
| QVQLVESGGGLVQAGGSLRLSCAASVFNFIYYTMGWYRPAPGKERELVAAISWSGGGTYYADSVKGRFTISRDNAKNTVYLLMNRLKPEDTAVYYCAAYWYVSSRDFEYWGQGTQVTVSS | high polyreactivity |
| QVQLVESGGGLVQAGGSLRISCAASGSTFDGYAMGWYRQAPGKERELVAAITRGGSTNYADSVKGRFTISRDNAKNTVYLQMNSLKPEDTAVYYCNARLWKRYPYDGYGYWGQGTQVTVSS | high polyreactivity |
| QVQLVESGGGLVQAGGTLRLSCAASGSIFPDNTMGWYRQAPGKERELVAAIDGRGVTTYYADSVKGRFTISRDNAKNTVYLHMNSLKPEDTAVYYCAAQPWLRYYYWGQGTQVTVSS | low polyreactivity |
| QVQLLESGGGLVQAGGSLRLSCAASGGTFYSYAMGWYRQAPGKERELVATITRRSGSTYYADSVKGRFTISRDNAKNTVYLQMNSLKPEDTAVYYCAATKYKLLFIHFRYDYWGQGTQVTVSS | high polyreactivity |
| QVQLVESGGGLVQAGGSLRLSCAASGRTFQKNTMGWYRQAPGKERELVAAIDYSATTTYYADSVKGRFTSSRDNAKNTVYLQMNSLKPEDTAVYYCAARWSYPRWEFDYWGQGTQVTVSS | high polyreactivity |
| QVQLVESGGGLVQAGGSLRLSCAASGRIFPSYAMGWYRKAPGKERELVAAISDSDGSTYYADSVKGRFTISRDNAKNTVYLQMNSLKPEDTAVYYCAAEGSFPAYDYWGQGTQVTVSS | low polyreactivity |
| QVQLVESGGGLVQAGGSLRLSCAASGSTFGGYVMGWYRQAPGKERELVAAISGNGASTTYADSVKGRFTISRDNAKNTFYLQMNSLIPEDTAVFYCAAMYRKAHSDYDYWGQGSQVTVSS | low polyreactivity |
| QVQLVESGGGLVQAGGSLRLSCAASGRTIGYYAMGWYRQAPGKERELDAAITRSGGSTYYADSVKGRFTISRDNAKNTVYLQMKSLKPEDTAVYYCATYSVSGKPLGYWGHGTQVTVSS | low polyreactivity |
| QLQLVESGGGLVQAGGSLRLSCAASGITFQWYAMGWYRQAPGKERELVARISSGGSTNYADSVKGRFTISCDNAKYTVYLQMNSVKPEDTAVYYCNARYFWFDYWGQGTQVTVSS | high polyreactivity |
| QVQLVESGGGLVQAGGSLRLSCAASGYTFKTNDMGRYRQAPGKEREFVAAIDSGGNTYYADSVKGRFTISRDNAKNTVYLQMNSVKPEDTAVYYCGAYRDYQYDYWGQGTQVTVSS | low polyreactivity |
| QVQLVESGGGLVQAGGSLRLSCAASGSTFKRYAMGWYRQPPGKERELVASISSGGSTNYADSVKGRFTISRDNAKNSVYLQMNSLKPEDTAVYYCAAGYHVSTRGLIGHFDYWGQGTQVTVSS | high polyreactivity |
| QVQLVESGGGLVQAGGSLRLSCAASGRIFTYNAMGWYRQAPGKERELVAAITRGGTTNYADSVKGRFTISRDNAKNTVYLQMNSLKPEDTAVYYCARAGAHPWWSRSTMYYWGQGTQVTVSS | low polyreactivity |
